Data set [1] in a line: Storage stability in PBS analysed by SDS-PAGE. It counts as physicochemical. The procedure:
“Improved storage stability” in the context of the present invention means the reduction of the amounts of a degradation band, preferably the reduction of the amount of degradation products, as detected by a Coomassie-stained SDS-PAGE occurring after storage at 40° C. for 1 month at 10 mg/ml in PBS, by at least 5%, 10%, 15%, 20%, 25%, 30%, 35%, 40%, 45%, 50%, or 50%. Methods to assess storage stability by SDS-PAGE are well known to the person skilled in the art. Examples of designed ankyrin repeat domains and recombinant binding proteins with improved storage stability properties are given in Examples 2 and 3.
Protein #13-His, Protein #14-His and Protein #15-His were prepared as described in Example 1, and samples were concentrated to 10 mg/ml in PBS. Protein #14-His and Protein #15-His where then stored for 1 month at −80° C. or at 40° C. in glass vials, followed by analysis on SDS 15% PAGE. […] These findings illustrate that Protein #14-His has improved storage stability compared to Proteins #13-His and Protein #15-His.
A storage stability improvement is also observed, when testing the storage stability of Protein #21 and Protein #22 (recombinant binding proteins consisting of the amino acid sequences corresponding to SEQ ID NOs: 21 and 22, respectively). Protein #21 and Protein #22 are prepared as described in Example 1, samples are concentrated to 10 mg/ml in PBS and stored for 1 month at −80° C. in or at 40° C. in glass vials, followed by analysis on standard size-exclusion chromatography.

Data set [2] in a line: Thermal unfolding, midpoint of thermal denaturation. The following applies: pH 6.0. It counts as physicochemical. The text has this:
Degradation may for example occur in the vicinity of any one of the 5 asparagines (including asparagine-glycine dipeptides), 13 aspartates, or 10 glycines of SEQ ID NO: 13, amongst additional potential degradation sites. SEQ ID NO: 13 further comprises a number of potential oxidation sites. […] When mutating aspartate at position 80 of SEQ ID NO: 13 to glutamate, a functional designed ankyrin repeat domain with binding specificity for serum albumin was generated, corresponding to SEQ ID NO: 14, which does show a marked improvement in storage stability (Example 3; FIGS. 2A and 2B).

Data set [3] relates to BT474 human breast carcinoma cells. The data set is described as follows: BT474 breast cancer tumor xenograft mouse model. In kind it is in vivo. On the procedure:
Protein #21-His, Protein #23-His, Protein #24-His, Protein #25-His were expressed and purified as described in Example 1. […] BT474 breast cancer tumor xenograft mouse models were essentially performed as follows using procedures well known to the person skilled in the art: BT474 human breast carcinoma cells were cultured, resuspended, and 2*10^7 cells in 200 μl RPMI 1640 medium containing 50:50 matrigel (BD Biosciences) per mouse were injected into the right flank of female Balb/c nude mice. […] Tumor volumes were measured for 32 days.
In a similar study using BT474 cells (identical setup and procedure; all 35 mg/kg doses), Protein #21-His was compared to Protein #23-His, Protein #24-His, and Protein #25-His.

Data set [4] in a line: Pharmacokinetic analysis in mouse. It counts as in vivo. The procedure:
The measurements shown in this example are the result of a half-life engineering effort as described in Example 11. Protein #21-His and Protein #23-His were expressed and purified as described in Example 1. The pharmacokinetic properties of the His-tagged proteins were assessed in mouse as described elsewhere (Zahnd, C., Kawe, M., Stumpp, M. T., de Pasquale, C., Tamaskovic, R., Nagy-Davidescu, G., Dreier, B., Schibli, R., Binz, H. K., Waibel, R., Plückthun, A., Cancer Res. 70, 1595-1605, 2010). […] Having SEQ ID NO: 16 present in the recombinant binding protein thus appears to be more favorable than having SEQ ID NO: 18 present.
Polypeptide linkers that link protein domains are well-known to the person skilled in the art. Gly-Ser-rich linkers are well-known from single-chain Fv antibody fragments, where they have proven to be most appropriate to link the two Fv polypeptide chains. […] Protein #26-His and Protein #27-His, were expressed and purified as described in Example 1. Pharmacokinetic analyses in mouse were performed as described in Example 8.
(§1) For the studies in this example Protein #21-His, Protein #24-His, Protein #28-His, Protein #29-His, and Protein #30-His were prepared according to Example 1. Protein #28-His was additionally PEGylated using a 40 kDa PEG moiety (NOF Sunbright GL2-400MA) by maleimid coupling of the PEG-moiety onto the free C-terminal cysteine of Protein #28-His, followed by purification to homogeneity using standard purification methods, procedures well known to the person skilled in the art. Pharmacokinetic analyses in mouse or cynomolgus monkey were performed as described in Examples 8 and 9.

Data set [5] can be described thus: Pharmacokinetic analysis in cynomolgus monkey. In kind it is in vivo. The procedure:
The measurements shown in this example are the result of a half-life engineering effort as described in Example 11. Protein #21-His, Protein #23-His, and Protein #24-His were expressed and purified as described in Example 1. The pharmacokinetic properties of the proteins were assessed in cynomolgus monkey. Proteins were administered via intravenous infusion for 30 min at a target dose level of between 1 mg/kg to cynomolgus monkeys. Blood samples were collected pre-dose and again at selected time points, for example 5 min, 10 min, 0.5 hours, 1 hour, 2 hours, 4 hours, 8 hours, 12 hours, 24 hours, 48 hours, 72 hours, 96 hours, 120 hours, 144 hours, 168 hours, 192 hours, 216 hours, and 240 hours post-end of infusion (i.e. post-injection). The blood samples were allowed to stand at room temperature and were centrifuged to generate serum, followed by storage at −80° C. pending analyses. Pharmacokinetic parameters were determined using procedures well known to the person skilled in the art. Serum concentrations of proteins were determined by sandwich ELISA using a rabbit monoclonal anti-designed ankyrin repeat domain antibody as capture reagent and murine monoclonal anti-designed ankyrin repeat domain antibody as detection reagent, and using a standard curve. Pharmacokinetic parameters were determined using standard software such as Phoenix WinNonLin (Certara, Princeton, USA) or Graph Pad Prism (GraphPad Software, La Jolla, USA) and standard analyses such as non-compartmental analyses. […] Target mediated clearance is well-known to the person skilled in the art and is known from e.g. antibodies targeting HER2.
Similarly, Protein #21-His was expressed and purified as described in Example 1. The pharmacokinetic properties of the proteins were assessed in cynomolgus monkey as described above at 1 mg/kg, 5 mg/kg and 10 mg/kg.
Similar results are observed when testing Protein #21 (expressed and purified as described in Example 1). The pharmacokinetic properties of the proteins are assessed in cynomolgus monkey as described above at 1 mg/kg, 10 mg/kg and 100 mg/kg. Pharmacokinetic parameters are evaluated as described above.
as §1

Numbering of substitutions follows the chain as printed. Entries after “also recorded” stand apart in the source; their conditions may differ.

B1: Protein #14-His: SEQ ID NO: 14 with a His-tag; stability-improved serum albumin binding designed ankyrin repeat domain, aspartate 80 of SEQ ID NO: 13 mutated to glutamate (protein)
chain: GSDLGKKLLEAARAGQDDEVRELLKAGADVNAKDYFSHTPLHLAARNGHLKIVEVLLKAGADVNAKDFAGKTPLHLAANEGHLEIVEVLLKAGADVNAQDIFGKTPADIAADAGHEDIAEVLQKAA
modifications: His-tag; Designed ankyrin repeat domain
For B1, the “stability upon storage at −80° C.” value in data set [1] (10 mg/ml in PBS, 1 month at −80° C., SDS 15% PAGE) was “equivalent stability”. Also, in data set [1] (10 mg/ml in PBS, glass vials, 1 month at 40° C., SDS 15% PAGE), the “reduction of degradation products compared to Protein #15-His” value is recorded as more than 50%. Moreover, the “reduction of degradation products compared to Protein #13-His” value was more than 50% in data set [1] (10 mg/ml in PBS, one week at 40° C., SDS 15% PAGE) and more than 50% in data set [1] (10 mg/ml in PBS, one week at 60° C., SDS 15% PAGE). The “midpoint of thermal denaturation Tm” value in data set [2] is 89.5 °C.

B2: Protein #13-His: SEQ ID NO: 13 with a His-tag; designed ankyrin repeat domain with binding specificity for serum albumin (WO2012/069654) (protein)
chain: B1 chain with E80D
modifications: His-tag; Designed ankyrin repeat domain
Regarding B2, the “degradation upon prolonged incubation” value in data set [1] (in PBS at 10 mg/ml at 40° C.) was “degrade”. The “midpoint of thermal denaturation Tm” value in data set [2] was 86 °C.

B3: Protein #21-His: SEQ ID NO: 21 with a His-tag (SEQ ID NO: 1) fused to its N terminus (protein)
chain: MRGSHHHHHHGSDLGKKLLEAARAGQDDEVRELLKAGADVNAKDYFSHTPLHLAARNGHLKIVEVLLKAGADVNAKDFAGKTPLHLAANEGHLEIVEVLLKAGADVNAQDIFGKTPADIAADAGHEDIAEVLQKAAGSPTPTPTTPTPTPTTPTPTPTGSDLGIKLLFAAAKGQDDEVRELLKAGADVNAKDFQGVTPLHIAAQSGHLEIVEVLLKAGADVNAKDVTGDTPLHLAAQHGHLEIVEVLLKAGADVNAQDERGWTPADLAADWGHEDIAEVLQKAAGSPTPTPTTPTPTPTTPTPTPTGSDLGKKLLEAARAGQDDEVRELLKAGADVNAKDEYGLTPLYLATAHGHLEIVEVLLKAGADVNAVDAIGFTPLHLAAFIGHLEIAEVLLKAGADVNAQDKFGKTPADIAAGAGNEDIAEVLQKAAGSPTPTPTTPTPTPTTPTPTPTGSDLGKKLLEAARAGQDDEVRELLKAGADVNAKDYFSHTPLHLAARNGHLKIVEVLLKAGADVNAKDFAGKTPLHLAANEGHLEIVEVLLKAGADVNAQDIFGKTPADIAADAGHEDIAEVLQKAA
modifications: Protein comprising four designed ankyrin repeat domains
For B3, the “inhibition of tumor growth” value in data set [3] (Protein #21-His 35 mg/kg, Trastuzumab 10 mg/kg, i.v. Q3Dx7, tumor volumes measured for 32 days, FIG. 4A) is given as “more efficacious in inhibiting tumor growth than Trastuzumab”. Also, in data set [3] (after 32 days of treatment, FIG. 4B), the “tumor suppression compared to Protein #24-His” value is recorded as “significantly better tumor suppression than Protein #24-His”. Moreover, in data set [3] (all 35 mg/kg doses, day 18 of treatment, FIG. 4B), the “tumor suppression compared to other recombinant binding proteins” value was “more efficacious in suppressing tumors than Protein #23-His, Protein #24-His, or Protein #25-His; also recorded: significantly more efficacious in inhibiting tumor growth than Protein #24-His”. In data set [4], the “% ID remaining after 48 hours” value came out at 19.5 % ID and the terminal half-life worked out at 30.4 h. In addition, the “concentration below which target-mediated clearance is observed” value in data set [5] is on record as “below 100 nM”. Also, in data set [5] (1 mg/kg, intravenous infusion), the terminal half-life stood at 47 h.

The values are drawn from patent publication US20210130420A1, “RECOMBINANT BINDING PROTEINS TARGETING HER2 AND SERUM ALBUMIN, AND THEIR USES” (Molecular Partners AG, priority 2016, published 2021).
